# Measured values as given in US20210128704A1 (UNIVERSITY OF MIAMI, published 2021).
# B1: CA8-204 (carbonic anhydrase 8 fragment, alternative transcript product) (other, not shown: small tags and cut ends)
# chain: MADLSFIEDTVAFPEKEEDEEEEEEGVEWGYEEGVEWGLVFPDANGEYQSPINLNSREARYDPSLLDVRLSPNYVVCRDCEVTNDGHTIQVILKSKSVLSGGPLPQGHEFELYEVRFHWGRENQRGSEHTVNFKAFPMEVRITNHLVKILFSE
# notes: Expressed in HEK293 cells; also called CA8 fragment
# Biological target: T1, ITPR1 (inositol 1,4,5-trisphosphate receptor type 1) (UniProt Q14643 1-2758, limits assumed)
# T1 construct: Endogenous protein of the transfected cells, tested by co-immunoprecipitation and western blot
# Assay: co-immunoprecipitation with antibodies to the tag and western blot, HEK293 cells before and after forskolin
# Description: Overexpression of V5-Car10 and V5-CA10 inhibits ATP-induced free calcium release in vitro: ITPR1 contains functionally distinct domains, including the ‘modulatory’ domain responding to intracellular modulators such as calcium, calmodulin, ATP, and carbonic anhydrase-8 (Car8). ATP increases ITPR1-dependent calcium release by increasing the open probability of the channel in the presence of activating concentrations of IP3 and calcium. It is believed that Car8-mediated inhibition of ITPR1 activation and ATP-mediated calcium release requires binding to this modulatory domain. […] Co-immunoprecipitation of each protein with antibodies to V5 tag with ITPR1 and pITPR1 before and after forskolin stimulation of HEK293 cells was conducted.
# T1 sequence (Q14643 whole entry): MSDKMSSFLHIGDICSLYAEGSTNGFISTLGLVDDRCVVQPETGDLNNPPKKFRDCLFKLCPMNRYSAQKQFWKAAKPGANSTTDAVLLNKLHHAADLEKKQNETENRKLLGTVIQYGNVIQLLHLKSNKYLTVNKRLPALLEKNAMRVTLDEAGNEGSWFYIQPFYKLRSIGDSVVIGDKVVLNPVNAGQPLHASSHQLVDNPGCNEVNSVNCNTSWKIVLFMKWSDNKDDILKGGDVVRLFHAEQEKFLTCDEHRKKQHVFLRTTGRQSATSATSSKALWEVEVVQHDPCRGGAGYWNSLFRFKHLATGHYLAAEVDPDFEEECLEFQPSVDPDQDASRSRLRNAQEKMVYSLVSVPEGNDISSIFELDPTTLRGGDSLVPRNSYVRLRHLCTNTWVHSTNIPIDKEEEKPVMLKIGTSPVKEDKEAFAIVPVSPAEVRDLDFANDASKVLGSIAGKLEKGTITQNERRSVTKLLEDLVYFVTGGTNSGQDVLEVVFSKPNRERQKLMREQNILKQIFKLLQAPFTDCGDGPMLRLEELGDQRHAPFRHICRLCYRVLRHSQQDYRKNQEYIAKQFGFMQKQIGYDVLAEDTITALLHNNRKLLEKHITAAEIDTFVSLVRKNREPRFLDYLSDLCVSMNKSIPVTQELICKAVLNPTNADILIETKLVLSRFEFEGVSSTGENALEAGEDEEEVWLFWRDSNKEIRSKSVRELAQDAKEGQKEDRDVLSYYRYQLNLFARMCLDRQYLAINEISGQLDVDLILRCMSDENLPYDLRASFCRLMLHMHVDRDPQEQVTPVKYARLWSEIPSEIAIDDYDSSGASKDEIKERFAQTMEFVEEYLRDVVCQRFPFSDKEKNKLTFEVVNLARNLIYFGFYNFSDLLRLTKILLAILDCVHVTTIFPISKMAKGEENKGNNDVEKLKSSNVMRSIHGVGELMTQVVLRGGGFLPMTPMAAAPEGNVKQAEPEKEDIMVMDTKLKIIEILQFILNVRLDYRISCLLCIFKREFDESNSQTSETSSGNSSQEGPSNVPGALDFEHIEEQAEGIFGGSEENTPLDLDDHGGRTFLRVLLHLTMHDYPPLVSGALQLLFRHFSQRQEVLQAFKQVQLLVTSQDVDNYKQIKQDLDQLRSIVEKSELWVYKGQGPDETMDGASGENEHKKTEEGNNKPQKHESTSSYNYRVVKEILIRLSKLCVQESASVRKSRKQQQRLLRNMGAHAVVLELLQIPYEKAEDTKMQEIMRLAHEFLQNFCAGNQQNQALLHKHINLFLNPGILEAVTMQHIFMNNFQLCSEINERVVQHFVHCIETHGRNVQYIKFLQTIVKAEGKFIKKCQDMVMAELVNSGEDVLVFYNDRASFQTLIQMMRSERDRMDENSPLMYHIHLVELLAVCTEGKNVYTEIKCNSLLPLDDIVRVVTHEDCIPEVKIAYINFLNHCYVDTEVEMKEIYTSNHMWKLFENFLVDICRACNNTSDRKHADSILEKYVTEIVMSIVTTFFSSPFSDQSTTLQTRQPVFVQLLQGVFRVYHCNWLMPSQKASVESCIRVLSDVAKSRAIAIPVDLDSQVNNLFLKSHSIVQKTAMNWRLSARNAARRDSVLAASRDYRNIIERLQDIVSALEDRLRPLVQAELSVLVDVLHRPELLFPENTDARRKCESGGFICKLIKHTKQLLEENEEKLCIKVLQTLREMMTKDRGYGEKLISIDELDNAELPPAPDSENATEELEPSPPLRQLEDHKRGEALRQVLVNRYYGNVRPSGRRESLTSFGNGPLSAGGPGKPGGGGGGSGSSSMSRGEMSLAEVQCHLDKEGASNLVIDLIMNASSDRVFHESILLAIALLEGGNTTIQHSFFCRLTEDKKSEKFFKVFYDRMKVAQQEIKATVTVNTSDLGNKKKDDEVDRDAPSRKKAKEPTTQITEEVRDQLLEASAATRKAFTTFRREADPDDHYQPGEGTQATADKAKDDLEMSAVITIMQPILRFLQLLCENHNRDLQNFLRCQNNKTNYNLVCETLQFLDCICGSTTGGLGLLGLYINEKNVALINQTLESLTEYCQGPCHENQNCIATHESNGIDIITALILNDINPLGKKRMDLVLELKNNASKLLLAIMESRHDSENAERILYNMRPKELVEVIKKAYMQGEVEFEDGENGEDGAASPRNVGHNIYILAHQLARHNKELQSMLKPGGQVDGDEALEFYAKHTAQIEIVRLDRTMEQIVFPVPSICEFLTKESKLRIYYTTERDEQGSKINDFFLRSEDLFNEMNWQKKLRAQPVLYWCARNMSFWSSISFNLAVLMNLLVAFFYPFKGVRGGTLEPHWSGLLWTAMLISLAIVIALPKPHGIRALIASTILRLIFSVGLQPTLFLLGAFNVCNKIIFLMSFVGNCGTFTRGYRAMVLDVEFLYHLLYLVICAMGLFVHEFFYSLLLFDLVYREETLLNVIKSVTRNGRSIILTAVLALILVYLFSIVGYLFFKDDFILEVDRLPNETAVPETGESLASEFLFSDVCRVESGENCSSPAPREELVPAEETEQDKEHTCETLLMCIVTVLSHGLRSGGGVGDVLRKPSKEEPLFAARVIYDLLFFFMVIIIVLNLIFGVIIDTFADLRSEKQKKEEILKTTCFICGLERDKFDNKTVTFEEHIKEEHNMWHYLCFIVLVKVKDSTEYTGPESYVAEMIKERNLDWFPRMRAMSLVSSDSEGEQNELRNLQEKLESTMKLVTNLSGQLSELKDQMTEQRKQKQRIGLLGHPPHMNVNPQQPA
binder,measurement,value
B1,binding result,no binding
